Measured values: publication PMC4231788

What was measured:
[1] = target: full-length soluble trimeric gp140 immunogen from the clade C TV1 strain (HIV-1 (clade C, strain TV1)); experiment: cryo-EM 2D comparison of trimers; 2D comparison of gp140ΔV2TV1 with full length gp140 constructs; trimeric diameters measured
[2] = target: full-length soluble trimeric gp140 immunogen from the clade C TV1 strain (HIV-1 (clade C, strain TV1)); experiment: cryo-EM structure; unliganded gp140 in vitreous ice, 0.1 mg/ml, Tris buffer 20 mM pH 7.9, 50 mM NaCl; single particle reconstruction, ~21 Å at 0.5 FSC
[3] = target: gp140 of clade C strain Du156.1 (HIV-1 (clade C, strain Du156.1)); experiment: cryo-EM 2D comparison of trimers; 2D comparison of gp140ΔV2TV1 with full length gp140 constructs; trimeric diameters measured
[4] = target: gp140 of clade C strain CAP45.2.00.G3 (HIV-1 (clade C, strain CAP45.2.00.G3)); experiment: as above
[5] = target: gp140 of clade C strain CAP239.2.00.G3J (HIV-1 (clade C, strain CAP239.2.00.G3J)); experiment: as above
[6] = target: gp140ΔV2TV1, clade C gp140 trimer with a 30-residue truncation in the V2 loop (HIV-1 (clade C, strain TV1)); experiment: as above

## full-length soluble trimeric gp140 immunogen from the clade C TV1 strain (natural protein)
[1]
  stoichiometry N: 3
[2]
  stoichiometry N: 3

## gp140 of clade C strain Du156.1 (natural protein)
[3]
  stoichiometry N: 3

## gp140 of clade C strain CAP45.2.00.G3 (natural protein)
[4]
  stoichiometry N: 3

## gp140 of clade C strain CAP239.2.00.G3J (natural protein)
[5]
  stoichiometry N: 3

## gp140ΔV2TV1, clade C gp140 trimer with a 30-residue truncation in the V2 loop (natural protein)
[6]
  stoichiometry N: 3
